The values that follow come from article PMC3962391, “Cation Diffusion Facilitators Transport Initiation and Regulation Is Mediated by Cation Induced Conformational Changes of the Cytoplasmic Domain” (PLoS ONE, 2014).

This series deals with the molecule itself. Briefly: SEC; Superdex200; apo proteins; elution volume against a calibration curve of marker proteins.

B1: MamM-CTD (residues 215-318) (domain or fragment, Magnetospirillum gryphiswaldense MSR-1, UniProt V6F235 215-318, looked up)
chain: EAVQNRIVEAAERVPGVRGVIHLRARYVGQDIWADMIIGVDPENTVEQAHEICEAVQAAVCGKIRRIESLHVSAEAREIGDTTKPSFSDQPLSFDEVMLSKVDN
notes: MamM, cation diffusion facilitator of the magnetosome membrane, Magnetospirillum gryphiswaldense MSR-1; Uniformly 13C,15N labelled for the solid-state NMR; also called apo-MamM-CTD; source: purified
Regarding B1, the “stoichiometry N” value is 2.

B2: MamM-CTD V260P (domain or fragment, Magnetospirillum gryphiswaldense MSR-1, UniProt V6F235 215-318, looked up)
chain: EAVQNRIVEAAERVPGVRGVIHLRARYVGQDIWADMIIGVDPENTPEQAHEICEAVQAAVCGKIRRIESLHVSAEAREIGDTTKPSFSDQPLSFDEVMLSKVDN
notes: MamM, Magnetospirillum gryphiswaldense MSR-1; also called V260P MamM-CTD mutant; recombinant MamM-CTD V260P; source: recombinant
For the protein B2, the “stoichiometry N” value is 2.

B3: C-terminal truncation MamM-CTD mutant (residues 215-293) (domain or fragment, Magnetospirillum gryphiswaldense MSR-1, UniProt V6F235 215-293, looked up)
chain: EAVQNRIVEAAERVPGVRGVIHLRARYVGQDIWADMIIGVDPENTVEQAHEICEAVQAAVCGKIRRIESLHVSAEAREI
notes: MamM, Magnetospirillum gryphiswaldense MSR-1; source: purified
For B3, the “stoichiometry N” value stood at 2.

By stoichiometry N is commonly meant a count of units in the complex or per binding partner.
